The test system of data set [1] is astrocytic CAAC / mBest1 channel (glutamate release). The experiment in a line: Sniffer patch: astrocyte to GluR1 (L497Y)-expressing HEK293T cell pairs, TFLLR-induced glutamate release. The class given is cell-based, mouse. The following applies: relative to scrambled shRNA. As to the method: (§1) The sniffer patch technique, which is used for determining whether or not one is permeable to glutamate, was performed as described in Lee, C. J. et al. Astrocytic control of synaptic NMDA receptors. J Physiol 581, 1057-81 (2007), which is hereby incorporated by reference for all purposes as if fully set forth herein.
(§2) 2. In experiments using astrocyte-HEK293T cell pairs, the sniffer patch techniques used naïve, scrambled- or mBest1-specific shRNA expressing (with GFP) astrocytes as a glutamate source; and GluR1 (L497Y) expressing HEK293T cells (with DsRED) as a detector. After obtaining gigaohm sealing, GluR1 (L497Y)-expressing cell was firstly ruptured, and then counterpart astrocytes were pressure-applied with 500 uM of TFLLR to evoke an increase in astrocytic intracellular Ca^2+ and resulting glutamate release onto the adjacent HEK293T cells.
(§3) GluR1LY-expressing detector cells were patched with the pipette solution pH 7.3 containing 110 mM CsGluconate, 30 mM CsCl, 5 mM HEPES, 4 mM NaCl, 2 mM MgCl2, 5 mM EGTA, and 1 mM CaCl2. The percentage of GluR1 (L497Y)-mediated current to the full activation level was analyzed by dividing the current amplitude of GluR1 (L497Y) current obtained through sniffer patch measurement by that of fully activated GluR1 (L497Y) current in the same cells.
(§4) The glutamate release through astrocytic CAACs was examined by using “sniffer-patch” technique and recording real-time glutamate release from cultured astrocytes (FIG. 10a). Using this technique, the present inventors observed that TFLLR-induced astrocytic glutamate release into an adjacent HEK293T cells expressing the non-desensitizing AMPA receptor subunit GluR1 (L497Y) mutant evoked an inward current sensitive to AMPA receptor antagonists, which is interpreted to reflect release of glutamate. The effects of TFLLR on current responses in transfected HEK293T cells was blocked by the treatment of niflumic acid (% block by niflumic acid=66.6±5.7%, FIGS. 10d to 10f), which is consistent with the idea that astrocytic CAAC is permeable to glutamate.

For data set [2], the target named is T1, astrocytic CAAC / mBest1 channel (glutamate release) (Mus musculus, UniProt O88870, R255K).
T1 construct: endogenous in cells; host or cells: cultured mouse cortical astrocytes
T1 sequence (O88870 1-551 R255K): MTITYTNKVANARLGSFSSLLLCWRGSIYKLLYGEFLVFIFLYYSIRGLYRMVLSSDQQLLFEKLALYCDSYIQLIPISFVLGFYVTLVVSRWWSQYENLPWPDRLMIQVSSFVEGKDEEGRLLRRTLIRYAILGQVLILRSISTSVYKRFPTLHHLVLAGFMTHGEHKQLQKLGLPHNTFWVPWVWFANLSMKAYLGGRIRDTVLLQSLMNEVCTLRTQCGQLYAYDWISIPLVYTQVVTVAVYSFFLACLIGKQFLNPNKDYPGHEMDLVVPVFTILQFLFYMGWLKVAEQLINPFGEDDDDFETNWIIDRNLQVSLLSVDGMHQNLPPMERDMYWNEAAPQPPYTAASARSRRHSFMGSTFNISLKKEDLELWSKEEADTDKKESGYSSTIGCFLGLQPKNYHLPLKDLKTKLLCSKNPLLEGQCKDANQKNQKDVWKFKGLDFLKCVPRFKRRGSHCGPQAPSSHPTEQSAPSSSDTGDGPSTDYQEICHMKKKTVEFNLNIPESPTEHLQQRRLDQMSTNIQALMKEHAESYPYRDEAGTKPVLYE
The description is as above. The following applies: sniffer patch, lentiviral shRNA expressing astrocytes, TFLLR. The class given is cell-based. As to the method: as §1, §2, §3, §4

B1: mBest1 shRNA: mBest1-specific short hairpin RNA, SEQ ID NO: 3 and 4 (lentiviral: SEQ ID NO: 30), nucleotides 563-582 of mBest1 (nucleic acid)
chain 1: GATCCCCTTGCCAACTTGTCAATGAATTCAAGAGATTCATTGACAAGTTGGCAATTTTTA
chain 2: GGGAACGGTTGAACAGTTACTTAAGTTCTCTAAGTAACTGTTCAACCGTTAAAAATTCGA
For the molecule B1, the “remaining component of glutamate release from astrocytes by mBest1 knock-down” value in data set [1] was “about 33%”. Further, in data set [2], the “percentage of GluR1 (L497Y)-mediated current to the fully activated GluR1 (L497Y) current by 1 mM glutamate” value is on record as 4.2±1.2%.
